T1: human Nrp2 b1b2 (human, UniProt O60462 275-595)
T1 construct: range 275-595; Range is that of the crystallization construct; also called Nrp2 b1b2 domains
T1 sequence (looked up): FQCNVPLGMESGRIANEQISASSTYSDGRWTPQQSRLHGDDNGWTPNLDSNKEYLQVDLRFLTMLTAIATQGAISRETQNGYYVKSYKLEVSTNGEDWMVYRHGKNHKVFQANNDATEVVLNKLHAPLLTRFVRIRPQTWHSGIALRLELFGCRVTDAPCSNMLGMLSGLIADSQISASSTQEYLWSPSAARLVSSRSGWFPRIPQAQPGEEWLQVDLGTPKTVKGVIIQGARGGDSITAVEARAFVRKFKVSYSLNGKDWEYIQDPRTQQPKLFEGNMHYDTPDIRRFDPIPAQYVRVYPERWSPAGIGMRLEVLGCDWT

T2: human Nrp1 protein (BIAcore analyte) (human, UniProt O14786 22-586, limits assumed)
T2 construct: no residue range for such an Nrp1 construct is printed; also called neuropilin-1
T2 sequence (looked up): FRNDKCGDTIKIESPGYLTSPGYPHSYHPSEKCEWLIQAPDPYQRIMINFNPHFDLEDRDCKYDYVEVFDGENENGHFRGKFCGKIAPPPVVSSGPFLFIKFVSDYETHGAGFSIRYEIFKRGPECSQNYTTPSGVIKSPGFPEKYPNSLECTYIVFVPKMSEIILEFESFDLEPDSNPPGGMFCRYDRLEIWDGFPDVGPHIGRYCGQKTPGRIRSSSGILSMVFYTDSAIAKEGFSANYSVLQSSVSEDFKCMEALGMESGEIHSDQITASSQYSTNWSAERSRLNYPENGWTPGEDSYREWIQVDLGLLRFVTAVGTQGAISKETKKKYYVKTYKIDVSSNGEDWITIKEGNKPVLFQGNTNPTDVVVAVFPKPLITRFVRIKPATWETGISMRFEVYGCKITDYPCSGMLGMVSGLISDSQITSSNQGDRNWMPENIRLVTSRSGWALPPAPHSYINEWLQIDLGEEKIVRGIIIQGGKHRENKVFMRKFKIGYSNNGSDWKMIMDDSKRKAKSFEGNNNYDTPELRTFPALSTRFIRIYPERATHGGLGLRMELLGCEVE

T3: human Nrp2 a1a2b1b2 (human, UniProt O60462 21-595, N-glycosylated (two sites within the a2 domain seen in the monoclinic crystal form))
T3 construct: range 1-595; The printed range begins at Met1 and so includes the native signal peptide, which is cleaved on secretion
T3 sequence: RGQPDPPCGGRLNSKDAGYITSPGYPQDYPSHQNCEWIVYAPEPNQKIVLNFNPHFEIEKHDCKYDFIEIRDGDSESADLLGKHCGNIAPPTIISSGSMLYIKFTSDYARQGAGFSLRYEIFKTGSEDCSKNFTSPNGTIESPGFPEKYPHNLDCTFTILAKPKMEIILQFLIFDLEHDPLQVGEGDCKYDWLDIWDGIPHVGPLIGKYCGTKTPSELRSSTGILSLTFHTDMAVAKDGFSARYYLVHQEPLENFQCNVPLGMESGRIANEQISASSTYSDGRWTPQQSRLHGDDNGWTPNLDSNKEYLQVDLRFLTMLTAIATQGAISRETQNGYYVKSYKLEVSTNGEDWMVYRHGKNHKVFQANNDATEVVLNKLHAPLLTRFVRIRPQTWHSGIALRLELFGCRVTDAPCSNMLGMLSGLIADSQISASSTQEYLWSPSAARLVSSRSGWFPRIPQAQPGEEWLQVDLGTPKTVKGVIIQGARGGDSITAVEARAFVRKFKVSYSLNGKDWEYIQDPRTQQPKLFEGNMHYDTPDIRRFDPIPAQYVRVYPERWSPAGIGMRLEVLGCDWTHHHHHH


Tests used:
[1] = biological target: T1, human Nrp2 b1b2; assay: BIAcore (SPR), 500 nM Nrp protein injected over immobilized IgG at 25 C
Source text: (§1) Figure 11: FIG. 11—Analysis of anti-Nrp antibody binding kinetics. BIAcore kinetic analysis of anti-panNrp[4] antibody.

[2] = biological target: T2, human Nrp1 protein (BIAcore analyte); assay: BIAcore, IgG immobilized on the chip, human NRP protein injected, 25 C; Nrp1 (first of the two affinities)
Source text: as §1

[3] = biological target: T3, human Nrp2 a1a2b1b2; assay: BIAcore, IgG immobilized on the chip, human NRP protein injected, 25 C; Nrp2 (second of the two affinities)
Source text: as §1

[4] = biological target: the molecule itself; assay: multi-angle light scattering, self-association

Row | Binder | binding result [1] | Kd [2] | Kd [3] | binding result [4]
1 | anti-panNrp^A antibody, clone YW68.11.26 (IgG) (antibody, V domains shown, Human IgG1 from a synthetic phage library; immobilized as IgG on the BIAcore chip) VH: EVQLVESGGGLVQPGGSLRLSCAASGFTISGYGIHWVRQAPGKGLEWVAYIYPDSGYTDYADSVKGRFTISADTSKNTAYLQMNSLRAEDTAVYYCAREDFRNRRRLWYVMDYWGQGT VL: DIQMTQSPSSLSASVGDRVTITCRASQDVSTAVAWYQQKPGKAPKLLIYSASFLYSGVPSRFSGSGSGTDFTLTDSSLQPEDFATYYCQQAWAYLTTFGQGTKVEIKR | no binding (tested: 500 nM) | 0.21 nM | 0.15 nM | –
2 | full-length human Nrp2-ECD (a1a2b1b2c) (receptor, extracellular domain) RGQPDPPCGGRLNSKDAGYITSPGYPQDYPSHQNCEWIVYAPEPNQKIVLNFNPHFEIEKHDCKYDFIEIRDGDSESADLLGKHCGNIAPPTIISSGSMLYIKFTSDYARQGAGFSLRYEIFKTGSEDCSKNFTSPNGTIESPGFPEKYPHNLDCTFTILAKPKMEIILQFLIFDLEHDPLQVGEGDCKYDWLDIWDGIPHVGPLIGKYCGTKTPSELRSSTGILSLTFHTDMAVAKDGFSARYYLVHQEPLENFQCNVPLGMESGRIANEQISASSTYSDGRWTPQQSRLHGDDNGWTPNLDSNKEYLQVDLRFLTMLTAIATQGAISRETQNGYYVKSYKLEVSTNGEDWMVYRHGKNHKVFQANNDATEVVLNKLHAPLLTRFVRIRPQTWHSGIALRLELFGCRVTDAPCSNMLGMLSGLIADSQISASSTQEYLWSPSAARLVSSRSGWFPRIPQAQPGEEWLQVDLGTPKTVKGVIIQGARGGDSITAVEARAFVRKFKVSYSLNGKDWEYIQDPRTQQPKLFEGNMHYDTPDIRRFDPIPAQYVRVYPERWSPAGIGMRLEVLGCDWTDSKPTVETLGPTVKSEETTTPYPTEEEATECGENCSFEDDKDLQLPSGFNCNFDFLEEPCGWMYDHAKWLRTTWASSSSPNDRTFPDDRNFLRLQSDSQREGQYARLISPPVHLPRSPVCMEFQYQATGGRGVALQVVREASQESKLLWVIREDQGGEWKHGRIILPSYDMEYQIVFEGVIGKGRSGEIAIDDIRISTDVPLENCMEPISAFAGENFKVDIPEIHEREGYEDEIDDEYEVDWSNSSSATSGSGAPSTDKEKSWLYTLDPHHHHHH | – | – | – | no binding
3 | human Nrp2 a2b1b2 (receptor, UniProt O60462 145-595, looked up, range 145-595; Purified on Ni-NTA; the tag of this construct is not described) GSEDCSKNFTSPNGTIESPGFPEKYPHNLDCTFTILAKPKMEIILQFLIFDLEHDPLQVGEGDCKYDWLDIWDGIPHVGPLIGKYCGTKTPSELRSSTGILSLTFHTDMAVAKDGFSARYYLVHQEPLENFQCNVPLGMESGRIANEQISASSTYSDGRWTPQQSRLHGDDNGWTPNLDSNKEYLQVDLRFLTMLTAIATQGAISRETQNGYYVKSYKLEVSTNGEDWMVYRHGKNHKVFQANNDATEVVLNKLHAPLLTRFVRIRPQTWHSGIALRLELFGCRVTDAPCSNMLGMLSGLIADSQISASSTQEYLWSPSAARLVSSRSGWFPRIPQAQPGEEWLQVDLGTPKTVKGVIIQGARGGDSITAVEARAFVRKFKVSYSLNGKDWEYIQDPRTQQPKLFEGNMHYDTPDIRRFDPIPAQYVRVYPERWSPAGIGMRLEVLGCDWT | – | – | – | no binding
